Where a chain is given by its changes, count along the chain named. Numbers in names are those of the source.
What was measured:
[1] = biological target: CTNNB wt(41-49) peptide … with HLA-A3 and b2M on peptide-pulsed T2A3 cells (human); experiment: flow cytometry, phage-displayed scFv on peptide-pulsed T2A3 cells (FIG. 12)
[2] = biological target: KRAS wt(7-16) peptide … with HLA-A11 and b2M on peptide-pulsed Hs611.T cells (human); experiment: flow cytometry, phage-displayed scFv on peptide-pulsed Hs611.T cells (FIG. 9)
[3] = biological target: control 1 peptide (…, artificial sequence) HLA-B7 biotinylated monomer (biotinylated (site not given)); experiment: phage ELISA on monomer-coated streptavidin plate (FIG. 1)
[4] = biological target: control 3 peptide (…, a different peptide from wt IDH2) HLA-B7 biotinylated monomer (biotinylated (site not given)); experiment: as above
[5] = biological target: T1, IDH2 wt peptide (…) HLA-B7 biotinylated monomer (biotinylated (site not given)); experiment: as above
T1 construct: also called wt version of the peptide of interest in complex with the same HLA allele

[6] = biological target: T2, IDH2 wt(134-143) peptide … with HLA-B7 and b2M on cells (human); experiment: flow cytometry, phage-displayed scFv on peptide-pulsed RPMI-6666 cells (FIG. 3)
T2 construct: peptide-pulsed RPMI-6666 cells in flow cytometry

[7] = biological target: T3, KRAS wt(7-16) peptide … with HLA-A3 and b2M on cells (human); experiment: flow cytometry, phage-displayed scFv on peptide-pulsed T2A3 cells (FIG. 8)
T3 construct: peptide-pulsed T2A3 cells in flow cytometry

[8] = biological target: T3, KRAS wt(7-16) peptide … with HLA-A3 and …; experiment: flow cytometry, phage-displayed scFv on peptide-pulsed T2A3 cells (FIG. 7)

B1: CTNNB_S45F_A3_E10 (scFv)
scFv: DIQMTQSPSSLSASVGDRVTITCRASQDVNTAVAWYQQKPGKAPKLLIYSASFLYSGVPSRFSGSRSGTDFTLTISSLQPEDFATYYCQQSYYSPPTFGQGTKVEIKRTGGGSGGGASEVQLVESGGGLVQPGGSLRLSCAASGFNINNTYIHWVRQAPGKGLEWVASIYPTDGYTRYADSVKGRFTISADTSKNTAYLQMNSLRAEDTAVYYCSRTYYSYYSAMDVWGQGTLVTVSS
Does B1 bind [1]?
Result: no binding

B2: KRAS_G12D_A11_D14 (scFv)
scFv: DIQMTQSPSSLSASVGDRVTITCRASQDVNTAVAWYQQKPGKAPKLLIYSASFLYSGVPSRFSGSRSGTDFTLTISSLQPEDFATYYCQQYSYTPVTFGQGTKVEIKRTGGGSGGGGSGGGASEVQLVESGGGLVQPGGSLRLSCAASGFNVWGPGMHWVRQAPGKGLEWVARIHPFSGNTYYADSVKGRFTISADTSKNTAYLQMNSLRAEDTAVYYCSRGYSYSAMDYWGQGTLVTVSS
Does B2 bind [2]?
Result: no binding

B3: KRAS_G12D_A11_D18 (scFv)
scFv: B2 scFv with T94E, W153S, P155S, G156Q, H175P, P176G, F177W, N180Y, S226F
Does B3 bind [2]?
Result: no binding

B4: CTNNB_S45_FA3 c19 (scFv)
scFv: DIQMTQSPSSLSASVGDRVTITCRASQDVNTAVAWYQQKPGKAPKLLIYSAYFLYSGVPSRFSGSRSGTDFTLTISSLQPEDFATYYCQQIHYKPLTFGQGTKVEIKRTGGGSGGGGSGGGASEVQLVESGGGLVQPGGSLRLSCAASGFNVAWYSIHWVRQAPGKGLEWVAQVYGGSSYTYYADSVKGRFTISADTSKNTAYLQMNSLRAEDTAVYYCSRDFYSSGMDYWGQGTLVTVSS
Does B4 bind [1]?
Result: no binding

B5: IDH2_R140Q_B7_c18 (scFv)
scFv: DIQMTQSPSSLSASVGDRVTITCRASQDVNTAVAWYQQKPGKAPKLLIYSASFLYSGVPSRFSGSRSGTDFTLTISSLQPEDFATYYCQQSYYMPFTFGQGTKVEIKRTGGGSGGGGSGGGASEVQLVESGGGLVQPGGSLRLSCAASGFNIFRGYMHWVRQAPGKGLEWVAMISPHSDYTSYADSVKGRFTISADTSKNTAYLQMNSLRAEDTAVYYCSRSYGWAAFDYWGQGTLVTVSS
Does B5 bind [3]?
Result: no binding

Does B5 bind [4]?
Result: no binding

Does B5 bind [5]?
Result: no binding

Does B5 bind [6]?
Result: no binding

B6: IDH2_R140Q_B7_c11 (scFv)
scFv: DIQMTQSPSSLSASVGDRVTITCRASQDVNTAVAWYQQKPGKAPKLLIYSASFLYSGVPSRFSGSRSGTDFTLTISSLQPEDFATYYCQQVYSSPFTFGQGTKVEIKRTGGGSGGGGSGGGASEVQLVESGGGLVQPGGSLRLSCAASGFNVKYYMMHWVRQAPGKGLEWVAAISPGYDYTYYADSVKGRFTISADTSKNTAYLQMNSLRAEDTAVYYCSRSYWRYSVDVWGQGTLVTVSS
notes: also called IDH2 R140Q(134-143)-B7 c1.1
Does B6 bind [3]?
Result: no binding

Does B6 bind [4]?
Result: no binding

Does B6 bind [5]?
Result: no binding

Does B6 bind [6]?
Result: no binding

B7: CTNNB_S45_FA3_c13 (scFv)
scFv: DIQMTQSPSSLSASVGDRVTITCRASQDVNTAVAWYQQKPGKAPKLLIYSAYFLYSGVPSRFSGSRSGTDFTLTISSLQPEDFATYYCQQIYTSPITFGQGTKVEIKRTGGGSGGGGSGGGASEVQLVESGGGLVQPGGSLRLSCAASGFNFITTGMHWVRQAPGKGLEWVARIGPGSDYTNYADSVKGRFTISADTSKNTAYLQMNSLRAEDTAVYYCSRYYYASALDYWGQGTLVTVSS
Does B7 bind [1]?
Result: no binding

B8: CTNNB_S45_FA3_c14 (scFv)
scFv: DIQMTQSPSSLSASVGDRVTITCRASQDVNTAVAWYQQKPGKAPKLLIYSASFLYSGVPSRFSGSRSGTDFTLTISSLQPEDFATYYCQQRAYFPITFGQGTKVEIKRTGGGSGGGGSGGGASEVQLVESGGGLVQPGGSLRLSCAASGFNFSDYGMHWVRQAPGKGLEWVAMLIPASGYTNYADSVKGRFTISADTSKNTAYLQMNSLRAEDTAVYYCSRGWSYYMDYWGQGTLVTVSS
Does B8 bind [1]?
Result: no binding

B9: KRAS_G12D_A3_c111 (scFv)
scFv: DIQMTQSPSSLSASVGDRVTITCRASQDVNTAVAWYQQKPGKAPKLLIYSASFLYSGVPSRFSGSRSGTDFTLTISSLQPEDFATYYCQQYMYSPVTFGQGTKVEIKRTGGGSGGGGSGGGASEVQLVESGGGLVQPGGSLRLSCAASGFNVSAYWMHWVRQAPGKGLEWVAQIYGGSGYTMYADSVKGRFTISADTSKNTAYLQMNSLRAEDTAVYYCSRTHSYWSAFDYWGQGTLVTVSS
Does B9 bind [7]?
Result: no binding

B10: KRAS_G12D_A11_D22 (scFv)
scFv: DIQMTQSPSSLSASVGDRVTITCRASQDVNTAVAWYQQKPGKAPKLLIYSASFLYSGVPSRFSGSRSGTDFTLTISSLQPEDFATYYCQQYEYYPMTFGQGTKVEIKRTGGGSGGGGSGGGASEVQLVESGGGLVQPGGSLRLSCAASGFNVMYSTMHWVRQAPGKGLEWVASIYSWSDYTYYADSVKGRFTISADTSKNTAYLQMNSLRAEDTAVYYCSRGYAHNSFDYWGQGTLVTVSS
Does B10 bind [2]?
Result: no binding

B11: CTNNB_S45_FA3 c17 (scFv)
scFv: DIQMTQSPSSLSASVGDRVTITCRASQDVNTAVAWYQQKPGKAPKLLIYSASFLYSGVPSRFSGSRSGTDFTLTISSLQPEDFATYYCQQQYAYTPITFGQGTKVEIKRTGGGSGGGGSGGGASEVQLVESGGGLVQPGGSLRLSCAASGFNVWSYGIHWVRQAPGKGLEWVAGVTPDGSYTYYADSVKGRFTISADTSKNTAYLQMNSLRAEDTAVYYCSRSYGWAMDYWGQGTLVTVSS
Does B11 bind [1]?
Result: no binding

B12: KRAS_G12D_A11_D3 (scFv)
scFv: DIQMTQSPSSLSASVGDRVTITCRASQDVNTAVAWYQQKPGKAPKLLIYSASFLYSGVPSRFSGSRSGTDFTLTISSLQPEDFATYYCQQYSYYPITFGQGTKVEIKRTGGGSGGGGSGGGASEVQLVESGGGLVQPGGSLRLSCAASGFNFSYGYMHWVRQAPGKGLEWVAWISGYTGNTYYADSVKGRFTISADTSKNTAYLQMNSLRAEDTAVYYCSRAASLSSSYYSAFDVWGQGTLVTVSS
Does B12 bind [2]?
Result: no binding

B13: KRAS G12V_A3_c122 (scFv)
scFv: DIQMTQSPSSLSASVGDRVTITCRASQDVNTAVAWYQQKPGKAPKLLIYSASFLYSGVPSRFSGSRSGTDFTLTISSLQPEDFATYYCQQGAYYRPFTFGQGTKVEIKRTGGGSGGGGSGGGASEVQLVESGGGLVQPGGSLRLSCAASGFNISYSYMHWVRQAPGKGLEWVATLLPYDGNTYYADSVKGRFTISADTSKNTAYLQMNSLRAEDTAVYYCSRAAYSSMDVWGQGTLVTVSS
Does B13 bind [8]?
Result: no binding

B14: KRAS_G12D_A11_D21 (scFv)
scFv: DIQMTQSPSSLSASVGDRVTITCRASQDVNTAVAWYQQKPGKAPKLLIYSASFLYSGVPSRFSGSRSGTDFTLTISSLQPEDFATYYCQQYAYYSPVTFGQGTKVEIKRTGGGSGGGGSGGGASEVQLVESGGGLVQPGGSLRLSCAASGFNIYGQMMHWVRQAPGKGLEWVAFLSPFSGNTYYADSVKGRFTISADTSKNTAYLQMNSLRAEDTAVYYCSRNISYEQSSAFDYWGQGTLVTVSS
Does B14 bind [2]?
Result: no binding

B15: KRAS G12V_A3_c121 (scFv)
scFv: DIQMTQSPSSLSASVGDRVTITCRASQDVNTAVAWYQQKPGKAPKLLIYSASFLYSGVPSRFSGSRSGTDFTLTISSLQPEDFATYYCQQSGYIPFTFGQGTKVEIKRTGGGSGGGGSGGGASEVQLVESGGGLVQPGGSLRLSCAASGFNIYGTMMHWVRQAPGKGLEWVAQFKPDSYNTYYADSVKGRFTISADTSKNTAYLQMNSLRAEDTAVYYCSRGEVYHYYAFDYWGQGTLVTVSS
Does B15 bind [8]?
Result: no binding

B16: KRAS G12V_A3_V12 (scFv)
scFv: DIQMTQSPSSLSASVGDRVTITCRASQDVNTAVAWYQQKPGKAPKLLIYSASFLYSGVPSRFSGSRSGTDFTLTISSLQPEDFATYYCQQASYYYPLTFGQGTKVEIKRTGGGSGGGGSGGGASEVQLVESGGGLVQPGGSLRLSCAASGFNISASGMHWVRQAPGKGLEWVADIHPLKPYTNYADSVKGRFTISADTSKNTAYLQMNSLRAEDTAVYYCSRYSSMYYYYFDYWGQGTLVTVSS
Does B16 bind [8]?
Result: no binding

B17: IDH2_R140Q_B7_c13 (scFv)
scFv: DIQMTQSPSSLSASVGDRVTITCRASQDVNTAVAWYQQKPGKAPKLLIYSASFLYSGVPSRFSGSRSGTDFTLTISSLQPEDFATYYCQQYSLYSPMTFGQGTKVEIKRTGGGSGGGGSGGGASEVQLVESGGGLVQPGGSLRLSCAASGFNSFLSIHWVRQAPGKGLEWVAHIFPSSDYTSYADSVKGRFTISADTSKNTAYLQMNSLRAEDTAVYYCSRGKHSSDSNYYMDYWGQGTLVTVSS
notes: also called IDH2 R140Q(134-143)-B7 c1.3
Does B17 bind [3]?
Result: no binding

Does B17 bind [4]?
Result: no binding

Does B17 bind [5]?
Result: no binding

Does B17 bind [6]?
Result: no binding

B18: KRAS G12V_A3_c120 (scFv)
scFv: DIQMTQSPSSLSASVGDRVTITCRASQDVNTAVAWYQQKPGKAPKLLIYSASFLYSGVPSRFSGSRSGTDFTLTISSLQPEDFATYYCQQKSEYSPWTFGQGTKVEIKRTGGGSGGGGSGGGASEVQLVESGGGLVQPGGSLRLSCAASGFNIYRYGIHWVRQAPGKGLEWVAVLYPYGYSTSYADSVKGRFTISADTSKNTAYLQMNSLRAEDTAVYYCSRSYAYGYFAYWGQGTLVTVSS
Does B18 bind [8]?
Result: no binding

From patent US20200079854A1 (Johns Hopkins, published 2020)
